What was measured:
Staphylococci [1] = assay: Bactericidal activity of ALAFAC alone; format: cell-based
Staphylococci [2] = assay: Membrane integrity assays (propidium iodide, ATP, A260 leakage); format: cell-based, Staphylococcus aureus; conditions: S. aureus; data not shown
Procedure: Membrane Integrity Assays. To evaluate the effect of […] on membrane integrity, Staphylococci were exposed to […] and antibacterial agents at indicated concentrations for 50 minutes at 37° C. in PBS. The detergent Triton X-100 (0.1%) was used as a control, known to cause extensive membrane rupture. After treatment the leakage of soluble components (DNA RNA and protein) were measured from supernatant obtained after centrifugation of the bacterial suspension at 13,000×g for 5 min, by measuring the absorbance at 260 nm in a BioTek Synergy 2 plate reader with the Take3 microdrop addition (Biotek). Cellular release of the small molecule ATP (MW 507) that was measured from the same supernatants using the ATP determining kit (Invitrogen), which measures the luminescence of oxyluciferin produced from the oxidation of luciferin by luficerase, a process that requires ATP degradation. […] Where applicable, independent readings were also taken in the presence of antibacterial agents alone to enable corrections for potential background leakage.

healthy human cells = conditions: cited from earlier work
Moraxella catarrhalis = conditions: 2 mg/ml; cited from earlier work
NRS 384 Staphylococci [3] = assay: Radioisotope 45Ca2+ transport assay; format: cell-based, Staphylococcus aureus; conditions: ALAFAC addition, Ruthenium Red 30 μM
Procedure: Radioisotope ^45Ca^2+ transport assays. Staphylococcus aureus was grown to log phase, washed three times and resuspended in 1×PBS containing 0.5 mM CaCl2 (CaPBS). No glucose was added in order to minimize the interference created by extrusion of Ca^2+ via ATPase pumps. ^45CaCl2 (PerkinElmer; Waltham, Mass., USA) was added to the cells at a final concentration of 2.5 μCi/mL, followed by inhibitor compound, with each addition given two minutes equilibration time. The untreated baseline sample was measured at this point. The sample was then divided, ALAFAC was added to one of the tubes, and ^45Ca^2+ uptake was measured at various intervals. For each sample, 100 μL was dispensed onto Millipore 0.3 μm PHWP filters (EMD Millipore; Billerica, Mass., USA) presoaked in CaPBS, and immediately washed with 9 mL of CaPBS via syringe filtration through Millipore Swinnex® filter holders. Filters were placed in scintillation vials with 5 mL of scintillation fluid, and CPMs were detected on a Wallac 1409 liquid scintillation counter (Wallac Oy, Turku, Finland). The results were expressed as ΔCPM that was calculated for each sample at the indicated time points as the difference between ALAFAC-treated and untreated samples.

NRS 384 Staphylococci [4] = assay: Intracellular pH measurement (BCECF-AM); format: cell-based, Staphylococcus aureus; conditions: ALAFAC 100 μg/mL (6 μM), RuR 30 μM, Amiloride 1 mM
From the text: Intracellular pH measurement. A reported protocol for intracellular pH (pHi) measurement was modified and optimized for S. aureus by testing the effect of various dye concentrations and staining times on the measured fluorescence of S. aureus isolate NRS 384 grown to mid-log phase. Cell samples were subjected to increasing concentrations of the membrane-permeant acetoxymehtyl (AM) ester derivative of the dual-excitation ratiometric pH indicator dye BCECF (2′,7′-bis-(2-carboxyethyl)-5-(and-6)-carboxyfluorescein), for 30 minutes at 30° C. Fluorescence was measured as a ratio of fluorescence at 530 nm with dual wavelength excitation at 490 and 440 nm and calibration curves were established for each independent experiment. After testing a number of loading concentrations we observed that the fluorescence ratios remains generally constant when concentrations above 20 μM was used. Therefore 25 μM BCECF-AM was used for all experiments. The optimized staining time, 30 minutes, was determined using the same criteria and was used for all experiments. After loading, the cells were washed twice in PBS by centrifugation and the resulting pellet was resuspended in PBS to the original volume and ALAFAC and ALAFAC/antibiotic combinations were added. CCCP was added as a positive control. CCCP is a lipophilic weak acid that is soluble in the lipid domain of the membrane in both the protonated and deprotonated form. This allows it to act as a protonophore causing an influx of H^+ into the cytoplasm, dissipating both the electrical potential and the H^+ gradient across the inner membrane. For each experiment calibration was performed where cells were resuspended in high [K^+] buffers at different pH values ranging from 6.5 to 8.0.

Escherichia coli = conditions: concentrations up to 5 mg/ml; cited from earlier work

B1: ALAFAC: non-covalent complex of alpha-lactalbumin and fatty acid (oleic acid); labeled HAMLET or HL in drawings and tables (protein, UniProt P00709 20-142, looked up)
Alpha-lactalbumin: KQFTKCELSQLLKDIDGYGGIALPELICTMFHTSGYDTQAIVENNESTEYGLFQISNKLWCKSSQVPQSRNICDISCDKFLDDDITDDIMCAKKILDIKGIDYWLAHKALCTEKLEQWLCEKL
modifications: complexed with oleic acid
Concentration of ALAFAC not triggering death (Staphylococci [1]): exceeding 1,000 μg/ml
Membrane damage (propidium iodide staining; leakage of ATP, DNA, RNA) (Staphylococci [2]): no membrane damage
Toxicity (healthy human cells): no toxicity
Reduction of bacteria (Moraxella catarrhalis): less than 90%
Intracellular Ca2+ (45Ca2+ uptake) (NRS 384 Staphylococci [3]): rose immediately
Transmembrane proton gradient (intracellular pH) (NRS 384 Staphylococci [4]): effectively dissipated the proton gradient
Bactericidal activity (Escherichia coli): no detectable activity
